Our source for the EC50 values is paper doi:10.1101/2020.10.22.351056 (bioRxiv, 2020).

In general, EC50 refers to the concentration giving half of the maximal effect. Read a high EC50 as a need for much substance.

This test concerns the target Fc-conjugated human angiotensin converting enzyme 2 (ACE2-Fc) (human, UniProt Q9BYF1). Kind of test: ELISA.

Sequence of Fc-conjugated human angiotensin converting enzyme 2 (ACE2-Fc) (Q9BYF1 18-740): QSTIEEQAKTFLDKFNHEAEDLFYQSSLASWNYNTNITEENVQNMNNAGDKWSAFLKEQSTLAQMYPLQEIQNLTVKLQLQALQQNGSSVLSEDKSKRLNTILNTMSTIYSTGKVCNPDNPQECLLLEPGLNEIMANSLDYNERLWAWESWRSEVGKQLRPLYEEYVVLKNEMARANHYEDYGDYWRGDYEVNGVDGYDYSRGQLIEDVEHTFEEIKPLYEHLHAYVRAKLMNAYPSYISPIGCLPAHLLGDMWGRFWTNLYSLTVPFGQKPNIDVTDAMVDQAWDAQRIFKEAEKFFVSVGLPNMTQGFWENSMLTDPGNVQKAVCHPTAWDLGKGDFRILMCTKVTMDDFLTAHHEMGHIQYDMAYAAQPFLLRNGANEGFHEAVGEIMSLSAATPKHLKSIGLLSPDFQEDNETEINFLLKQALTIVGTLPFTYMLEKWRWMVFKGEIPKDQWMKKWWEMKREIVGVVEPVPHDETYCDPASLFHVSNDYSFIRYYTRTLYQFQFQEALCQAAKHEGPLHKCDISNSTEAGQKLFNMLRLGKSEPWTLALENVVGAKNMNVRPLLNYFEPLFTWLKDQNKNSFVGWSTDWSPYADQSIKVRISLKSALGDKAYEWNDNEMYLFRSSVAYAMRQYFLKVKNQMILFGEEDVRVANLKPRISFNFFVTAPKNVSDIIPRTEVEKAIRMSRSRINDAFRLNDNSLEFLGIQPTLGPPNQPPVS

B1: SARS-CoV spike protein S1+S2, His-tagged (domain or fragment)
chain: not shown
Take B1: the EC50 worked out at 13.9 nM.
